# Data from patent publication US20190202900A1 (INFLARX, published 2019).
# T1: human endogenous C5a (eC5a) generated in human zymosan-activated plasma (human, UniProt P01031 678-751)
# T1 sequence: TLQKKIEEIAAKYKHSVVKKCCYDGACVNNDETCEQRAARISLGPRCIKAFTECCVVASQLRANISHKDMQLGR
# B1: IFX-1 (antibody, IgG4, V domains shown)
# VH: QVQLQQSGPQLVRPGTSVKISCKASGYSFTTFWMDWVKQRPGQGLEWIGRIDPSDSESRLDQRFKDRATLTVDKSSSTVYMQLSSPTSEDSAVYYCARGNDGYYGFAYWGQGTLVTVSS
# VL: DIVLTQSPASLAVSLGQRATISCKASQSVDYDGDSYMKWYQQKPGQPPKLLIYAASNLQSGIPARFSGSGSGTDFTLNIHPVEEEDAATYYCQQSNEDPYTFGGGTKLEIK
# Biological target: T1, human endogenous C5a (eC5a) generated …
# Test: cell-based or functional assay
binder,measurement,value
B1,"blocking of eC5a-induced CD11b up-regulation on human granulocytes (ZAP-CD11b assay), Ab:Ag ratios 1:1 and 2:1",≤ 98%
same,"decrease of CD11b expression on human granulocytes (ZAP-CD11b assay, flow cytometry MFI), Ab:Ag molar ratio 0.5:1",> 80%
